{"source": "patent US20040192610A1", "target": "rat neuronal nicotinic acetylcholine receptor, α7 subtype (rat) (UniProt Q05941)", "sequence (Q05941 23-502)": "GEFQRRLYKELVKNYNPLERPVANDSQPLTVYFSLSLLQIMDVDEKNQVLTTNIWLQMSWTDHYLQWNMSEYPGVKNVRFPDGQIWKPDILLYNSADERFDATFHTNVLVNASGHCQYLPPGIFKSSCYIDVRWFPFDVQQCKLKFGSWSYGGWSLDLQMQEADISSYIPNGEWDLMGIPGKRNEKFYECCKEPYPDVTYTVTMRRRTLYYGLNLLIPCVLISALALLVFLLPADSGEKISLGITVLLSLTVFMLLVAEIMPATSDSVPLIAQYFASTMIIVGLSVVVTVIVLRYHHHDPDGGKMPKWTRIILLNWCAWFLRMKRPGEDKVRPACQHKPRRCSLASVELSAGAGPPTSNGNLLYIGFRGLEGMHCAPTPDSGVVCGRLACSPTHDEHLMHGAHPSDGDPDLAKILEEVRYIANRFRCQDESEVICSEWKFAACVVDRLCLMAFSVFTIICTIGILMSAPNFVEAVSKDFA", "test": "cell-based or functional assay"}
{"substance": "α-conotoxin peptide PnIA", "values": [{"measurement": "IC50 of antagonistic activity (oocyte electrophysiology)", "value": 229, "unit": "nmol"}]}
